Measurements taken from patent US20230303649A1 (published 2023).
Residue numbers refer to the chain shown, from its start.

T1: IL-2R on human primary T cells (human, UniProt P01589 22-272; P14784 27-551; P31785 23-369)
T1 sequence (looked up) 1: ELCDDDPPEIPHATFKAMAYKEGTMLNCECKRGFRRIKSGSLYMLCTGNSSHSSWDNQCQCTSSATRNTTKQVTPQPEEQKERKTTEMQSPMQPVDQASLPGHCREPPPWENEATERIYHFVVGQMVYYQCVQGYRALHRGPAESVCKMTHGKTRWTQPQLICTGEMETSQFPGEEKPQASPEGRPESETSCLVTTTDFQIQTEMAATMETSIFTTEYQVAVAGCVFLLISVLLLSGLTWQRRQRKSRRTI
T1 sequence (looked up) 2: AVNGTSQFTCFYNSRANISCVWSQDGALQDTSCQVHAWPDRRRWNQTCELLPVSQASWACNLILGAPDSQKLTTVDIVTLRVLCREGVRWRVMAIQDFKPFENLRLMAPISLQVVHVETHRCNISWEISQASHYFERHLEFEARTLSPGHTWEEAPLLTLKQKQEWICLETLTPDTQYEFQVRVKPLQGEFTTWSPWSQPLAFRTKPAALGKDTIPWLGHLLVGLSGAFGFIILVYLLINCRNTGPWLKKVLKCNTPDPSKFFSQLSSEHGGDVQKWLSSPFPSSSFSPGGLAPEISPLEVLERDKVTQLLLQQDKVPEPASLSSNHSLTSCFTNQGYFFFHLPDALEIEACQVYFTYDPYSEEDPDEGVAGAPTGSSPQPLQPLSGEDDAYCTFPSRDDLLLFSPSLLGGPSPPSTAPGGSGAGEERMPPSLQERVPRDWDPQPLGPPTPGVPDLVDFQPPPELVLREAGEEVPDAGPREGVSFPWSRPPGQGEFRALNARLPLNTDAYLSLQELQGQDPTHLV
T1 sequence (looked up) 3: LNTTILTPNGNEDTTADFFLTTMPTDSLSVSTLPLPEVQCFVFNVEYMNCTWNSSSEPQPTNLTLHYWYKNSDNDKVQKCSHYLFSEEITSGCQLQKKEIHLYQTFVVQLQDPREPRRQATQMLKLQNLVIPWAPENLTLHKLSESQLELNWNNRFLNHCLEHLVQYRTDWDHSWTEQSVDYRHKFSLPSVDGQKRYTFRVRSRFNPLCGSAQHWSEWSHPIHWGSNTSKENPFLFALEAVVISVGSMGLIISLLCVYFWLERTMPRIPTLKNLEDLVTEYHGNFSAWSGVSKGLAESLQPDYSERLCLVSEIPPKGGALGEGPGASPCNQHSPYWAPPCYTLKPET

B1: SEQ ID NO 11 (ligand)
chain: APTSSSTKKTQLQLEHLRLDLEMILNGINNYKNPKLTRMLTFKFYMPKKATELKHLQCLEEELKPLEEVLNLAQSKNFHLRPRDLISNINVIVLELKGSETTFMCEYADETATIVEFLNRWITFSTSIISTLT
B2: SEQ ID NO 20 (ligand)
chain: B1 chain with R18L, E22Q, Y31H, V69A, N71R, Q74P, T126Q
B3: SEQ ID NO 13 (ligand)
chain: B1 chain with R18L, E22Q, Y31H, K35R, V69A, N71R, Q74P, N88D, T126Q
B4: SEQ ID NO 16 (ligand)
chain: B1 chain with L80F, R81D, L85V, I86V, I92F, T126Q
B5: SEQ ID NO 12 (ligand)
chain: B1 chain with L80F, R81D, L85V, I86V, N88D, I92F
B6: SEQ ID NO 23 (ligand)
chain: B1 chain with R18L, E22Q, Y31H, N71R, N88D, T126Q
B7: SEQ ID NO 36 (ligand)
chain: B1 chain with R18L, E22Q, Y31H, V69A, N88D, T126Q
B8: SEQ ID NO 27 (ligand)
chain: B1 chain with R18L, E22Q, Y31H, K35R, N71R, Q74P
B9: SEQ ID NO 26 (ligand)
chain: B1 chain with R18L, E22Q, Y31H, K35R, N71R, Q74P, N88D, T126Q
B10: SEQ ID NO 37 (ligand)
chain: B1 chain with R18L, E22Q, Y31H, V69A, N71R, Q74P, N88D, T126Q
B11: SEQ ID NO 9 (ligand)
chain: B1 chain with R18L, E22Q, Y31H, K35R, V69A, N71R, Q74P, T126Q
B12: SEQ ID NO 18 (ligand)
chain: B1 chain with R18L, E22Q, L80F, R81D, L85V, I86V, I92F, T126Q
B13: SEQ ID NO 34 (ligand)
chain: B1 chain with R18L, E22Q, Y31H, N88D, T126Q
B14: SEQ ID NO 29 (ligand)
chain: B1 chain with R18L, E22Q, Y31H, K35R, Q74P
B15: SEQ ID NO 17 (ligand)
chain: B1 chain with E22Q, L80F, R81D, L85V, I86V, I92F
B16: SEQ ID NO 21 (ligand)
chain: B1 chain with R18L, E22Q, Y31H, V69A, Q74P, T126Q
B17: SEQ ID NO 39 (ligand)
chain: B1 chain with R18L, E22Q, N71R, N88D, T126Q
B18: SEQ ID NO 38 (ligand)
chain: B1 chain with R18L, E22Q, V69A, N71R, Q74P, N88D, T126Q
B19: SEQ ID NO 35 (ligand)
chain: B1 chain with R18L, E22Q, Y31H, Q74P, N88D, T126Q
B20: SEQ ID NO 14 (ligand)
chain: B1 chain with R18L, E22Q, Y31H, K35R, Q74P, T126Q
B21: SEQ ID NO 25 (ligand)
chain: B1 chain with R18L, E22Q, Y31H, K35R, V69A, N71R, Q74P
B22: SEQ ID NO 24 (ligand)
chain: B1 chain with R18L, E22Q, Y31H, N71R, N88D
B23: SEQ ID NO 28 (ligand)
chain: B1 chain with R18L, E22Q, Y31H, K35R, Q74P, N88D, T126Q
B24: SEQ ID NO 15 (ligand)
chain: B1 chain with R18L, E22Q, Y31H, K35R, N71R, Q74P, T126Q

Target: T1, IL-2R on human primary T cells
Assay: cell-based or functional assay

CD8 EC50 (nM), STAT5 phosphorylation | Treg EC50 (nM), STAT5 phosphorylation | CD4 conv EC50 (nM), STAT5 phosphorylation | CD8 naïve EC50 (nM), STAT5 phosphorylation | Binder
650 nM | 3.96 nM | – | – | B1
227 nM | 0.03 nM | 1.2 nM | 312 nM | B2
8650 nM | 0.65 nM | 4160 nM | 8410 nM | B3
1.68 nM | 0.03 nM | 1.31 nM | 1.81 nM | B4
650 nM | 200 nM | – | – | B5
1820 nM | 0.49 nM | 1000 nM | 1880 nM | B6
10000 nM | 11.7 nM | 4000 nM | 10000 nM | B7
10000 nM | 5.94 nM | 4000 nM | 10000 nM | B8
4270 nM | 0.67 nM | 2640 nM | 4270 nM | B9
10000 nM | 1.11 nM | 5500 nM | 10000 nM | B10
589 nM | 0.05 nM | 2.14 nM | 822 nM | B11
23.5 nM | 0.08 nM | 15.9 nM | 21.1 nM | B12
1000 nM | 2.44 nM | 1000 nM | 1000 nM | B13
10000 nM | 9.32 nM | 2290 nM | 10000 nM | B14
10000 nM | 1000 nM | 1000 nM | 10000 nM | B15
151 nM | 0.07 nM | 4.81 nM | 204 nM | B16
10000 nM | 91.9 nM | 5500 nM | 10000 nM | B17
10000 nM | 0.4 nM | 8880 nM | 10000 nM | B18
10000 nM | 15.7 nM | 7000 nM | 10000 nM | B19
372 nM | 0.29 nM | 29.1 nM | 444 nM | B20
10000 nM | 0.43 nM | 2290 nM | 10000 nM | B21
10000 nM | 18.3 nM | 4000 nM | 10000 nM | B22
4000 nM | 1.02 nM | 1000 nM | 4000 nM | B23
28.4 nM | 0.01 nM | 2.52 nM | 29.8 nM | B24
